Data on 11 molecules can be found in patent publication US20230235040A1 (ALMIRALL S A, published 2023).

Assay [1] addresses T1, hu-IL-36β (human IL-36β, N-terminally truncated active form R5-E157) (human).
T1 chain: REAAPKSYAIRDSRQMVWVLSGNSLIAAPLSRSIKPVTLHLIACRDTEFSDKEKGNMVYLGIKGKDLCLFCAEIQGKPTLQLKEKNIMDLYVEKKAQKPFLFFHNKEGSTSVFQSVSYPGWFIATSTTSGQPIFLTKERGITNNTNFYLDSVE
Nature of the assay: cell-based or functional assay.

Assay [2] has as its target T1, hu-IL-36β (human IL-36β, N-terminally …). The assay is described as follows: SPR (Biacore 8K), biotinylated hu-IL-36β captured on CAP chip, Fab injected, 37°C. The procedure: (§1) Briefly, a 1:4 dilution of Biotin CAPture Reagent (GE) into HBS-EP buffer (0.01 M HEPES pH 7.4, 0.15 M NaCl, 3 mM EDTA, 0.005% Surfactant P20) was applied to a CAP sensor chip at 2 uL/min flow rate. For kinetics measurements, 6 nM biotinylated human IL-36β was captured at 10 uL/min to achieve ˜50 response units in the second flow cell (FC2). FC1 was kept as a reference. […] The sensorgram was recorded and subject to reference and buffer subtraction before evaluating by BIACORE® 8K Evaluation Software (version 1.1.1.7442). Association rates (kₒₙ) and dissociation rates (koff) were calculated using a simple one-to-one Langmuir binding model.
In general terms: SPR reads the build-up and loss of mass on a sensor chip optically.

Assay [3] deals with T2, hu-IL-36α (human IL-36α, N-terminally truncated active form K6-F158) (human, UniProt Q9UHA7 6-158).
T2 construct: Purification tag cleaved off; Biotinylated where captured (SPR, some ELISAs); also called hu-IL-36a
T2 sequence: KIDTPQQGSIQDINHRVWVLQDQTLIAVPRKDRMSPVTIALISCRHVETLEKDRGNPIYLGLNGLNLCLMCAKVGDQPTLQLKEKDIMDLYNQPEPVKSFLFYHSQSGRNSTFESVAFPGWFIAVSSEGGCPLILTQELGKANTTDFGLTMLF
Nature of the assay: SPR (Biacore 8K), biotinylated hu-IL-36 captured on CAP chip, Fab injected, 37°C. As for the experimental part: as §1, with “3” for “6”, “IL-36α and human IL-36γ” for “IL-36β”

The target of assay [4] is T3, hu-IL-36γ (human IL-36γ, N-terminally truncated active form S18-D169) (human, UniProt Q9NZH8 18-169).
T3 construct: Purification tag cleaved off; Biotinylated where captured; also called hu-IL-36g
T3 sequence: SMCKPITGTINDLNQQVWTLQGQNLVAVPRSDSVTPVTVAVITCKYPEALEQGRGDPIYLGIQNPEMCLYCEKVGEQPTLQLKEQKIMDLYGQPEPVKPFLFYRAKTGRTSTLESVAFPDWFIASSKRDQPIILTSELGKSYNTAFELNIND
The description is as above. The procedure:
as §1, with “3” for “6”, “IL-36α and human IL-36γ” for “IL-36β”

The target of assay [5] is T2, hu-IL-36α (human IL-36α, N-terminally …). Nature of the assay: phage competition ELISA: Fab on phage, soluble hu-IL-36α titrated against coated hu-IL-36α. The procedure:
(§2) Selected phages with top binding signal were purified to perform phage competition ELISA. The optimal phage concentration was incubated with serially-diluted human IL-36α or human IL-36γ in ELISA buffer in NUNC F plate for two hours. 80 μL of the mixture was transferred to human IL-36α or human IL-36γ coated wells for 15 min to capture unbound phage. The plate was washed with wash buffer (0.05% TWEEN®20 in PBS), and HRP-conjugated anti-M13 antibody (Sino biological, Cat #11973-MM05-H-50) was added in ELISA buffer for 30 min. The plates were washed and developed as described above. The absorbance at 450 nm was plotted as a function of antigen concentration in solution to determine phage IC50.

Assay [6] deals with T3, hu-IL-36γ (human IL-36γ, N-terminally …). The assay is described as follows: phage competition ELISA: Fab on phage, soluble hu-IL-36γ titrated against coated hu-IL-36γ. As for the experimental part: as §2

B1: mAb6_2.5 Fab (Fab, V domains shown)
VH: ELQLQESGPGLVKPSETLSLTCTVSGGSITASNYYWGWIRQPPGKGLEWIGSIDYTGSTYYEPSLKSRVTISVDTSKNQFSLKLSSVTAADTAVYYCATGSYYETYLGFDVWGQGTLVTVSS
VL: ESVLTQPPSVSGAPGQRVTISCTGSSSNIGAHYDVHWYQQLPGTAPKLLIYGNDNRPSGVPDRFSGSKSGTSASLAITGLQAEDEADYYCQSYDYSLSGYVFGGGTKLTVL
notes: Recombinant Fab with 8xHis tag (Expi293F)
Consider B1, for which the “IC50, IL-36-stimulated IL-8 secretion by HaCat cells” value (from here on “IC50 … by HaCat cells”) in assay [1] amounted to 0.2 nM. In assay [2], binding was characterised by a dissociation constant (Kd) of 0.66 nM, the koff is 0.000476 s⁻¹ and the association rate constant (kon) was 717000 M⁻¹ s⁻¹.

B2: mAb6 Fab (Fab, V domains shown)
VH: ELQLQESGPGLVKPSETLSLTCTVSGGSITSSNYYWGWIRQPPGKGLEWIGSIDYTGSTYYNPSLKSRVTISVDTSKNQFSLKLSSVTAADTAVYYCARGKYYETYLGFDVWGQGTLVTVSS
VL: ESVLTQPPSVSGAPGQRVTISCTGSSSNIGAGYDVHWYQQLPGTAPKLLIYGNTNRPSGVPDRFSGSKSGTSASLAITGLQAEDEADYYCQSYDISLSGWVFGGGTKLTVL
As to B2, in assay [1], the “IC50 … by HaCat cells” value came to 0.15 nM.

B3: mAb2.8 Fab (Fab, V domains shown)
VH: ELQLQESGPGLVKPSETLSLTCTVSGGSISDSSYYWGWIRQPPGKGLEWIGSIYYTGETYYAPSLKSRVTISVDTSKNQFSLKLSSVTAADTAVYYCARLRYGVGVPRYFDPWGQGTLVTVSS
VL: ESVLTQPPSVSGAPGQRVTISCTGSSSNIGAHYDVHWYQQLPGTAPKLLIYGNDNRPSGVPDRFSGSKSGTSASLAITGLQAEDEADYYCQSYDYSLSGYVFGGGTKLTVL
notes: as for B1
On to B3, for which, in assay [3], the Kd is 0.14 nM, the koff was 0.000254 s⁻¹ and the kon was 1.83e+06 M⁻¹ s⁻¹. In assay [4], the Kd came to 0.17 nM, the koff worked out at 0.000301 s⁻¹ and the kon was determined as 1.8e+06 M⁻¹ s⁻¹.

B4: mAb2.1 Fab (phage-displayed) (Fab, V domains shown)
VH: ELQLQESGPGLVKPSETLSLTCTVSGGSISDSSYYWGWIRQPPGKGLEWIGSIYYTGNTYYNSSLKSRVTISVDTSKNQFSLKLSSVTAADTAVYYCARVRYGVGVPRYFDPWGQGTLVTVSS
VL: ESVLTQPPSVSGAPGQRVTISCTGSSSNIGAHYDVHWYQQLPGTAPKLLIYGNDNRPSGVPDRFSGSKSGTSASLAITGLQAEDEADYYCQSYDYSLSGYVFGGGTKLTVL
Turning to B4, the IC50 in assay [5] is 1.03 nM; in assay [6], 4.86 nM.

B5: mAb6_2.8 Fab (Fab, V domains shown)
VH: ELQLQESGPGLVKPSETLSLTCTVSGGSITASNYYWGWIRQPPGKGLEWIGSIDYTGSTYYNPSLKSRVTISVDTSKNQFSLKLSSVTAADTAVYYCASGKYYETYLGFDVWGQGTLVTVSS
VL: ESVLTQPPSVSGAPGQRVTISCTGSSSNIGAHYDVHWYQQLPGTAPKLLIYGNDNRPSGVPDRFSGSKSGTSASLAITGLQAEDEADYYCQSYDYSLSGYVFGGGTKLTVL
notes: as for B1
In the case of B5, in assay [1], the “IC50 … by HaCat cells” value was 0.33 nM. Besides, in assay [2], binding was characterised by a dissociation constant (Kd) of 1.08 nM, the koff came to 0.000343 s⁻¹ and the kon was determined as 317000 M⁻¹ s⁻¹.

B6: mAb6_2.9 Fab (Fab, V domains shown)
VH: ELQLQESGPGLVKPSETLSLTCTVSGGSITSSNYYWGWIRQPPGKGLEWIGSIDYTGSTYYNPSLKSRVTISVDTSKNQFSLKLSSVTAADTAVYYCATGKYYETYLGFDVWGQGTLVTVSS
VL: ESVLTQPPSVSGAPGQRVTISCTGSSSNIGAHYDVHWYQQLPGTAPKLLIYGNDNRPSGVPDRFSGSKSGTSASLAITGLQAEDEADYYCQSYDYSLSGYVFGGGTKLTVL
notes: as for B1
In assay [2], B6 displayed a Kd of 1.37 nM, a koff of 0.000411 s⁻¹ and a kon of 299000 M⁻¹ s⁻¹.

B7: mAb2.12 Fab (Fab, V domains shown)
VH: ELQLQESGPGLVKPSETLSLTCTVSGGSISESSYYWGWIRQPPGKGLEWIGSIYYTGETYYAPSLKSRVTISVDTSKNQFSLKLSSVTAADTAVYYCARVKYGVGVPRYFDPWGQGTLVTVSS
VL: ESVLTQPPSVSGAPGQRVTISCTGSSSNIGAHYDVHWYQQLPGTAPKLLIYGNDNRPSGVPDRFSGSKSGTSASLAITGLQAEDEADYYCQSYDYSLSGYVFGGGTKLTVL
notes: as for B1
In assay [3], B7 registered a Kd of 0.16 nM, a koff of 0.000277 s⁻¹ and a kon of 1.7e+06 M⁻¹ s⁻¹. Further, in assay [4], the Kd was 0.28 nM, the koff is 0.000503 s⁻¹ and the kon was 1.81e+06 M⁻¹ s⁻¹.

B8: mAb2.9 Fab (Fab, V domains shown)
VH: ELQLQESGPGLVKPSETLSLTCTVSGGSISDSSYYWGWIRQPPGKGLEWIGSIYYTGETYYAPSLKSRVTISVDTSKNQFSLKLSSVTAADTAVYYCARVKYGVGVPRYFDPWGQGTLVTVSS
VL: ESVLTQPPSVSGAPGQRVTISCTGSSSNIGAHYDVHWYQQLPGTAPKLLIYGNDNRPSGVPDRFSGSKSGTSASLAITGLQAEDEADYYCQSYDYSLSGYVFGGGTKLTVL
notes: as for B1
For B8, in assay [3], binding was characterised by a dissociation constant (Kd) of 0.12 nM, the koff is 0.00026 s⁻¹ and the kon stood at 2.19e+06 M⁻¹ s⁻¹. In assay [4], this molecule came in with a Kd of 0.24 nM, a koff of 0.000565 s⁻¹ and a kon of 2.4e+06 M⁻¹ s⁻¹.

B9: mAb6_2.6 Fab (Fab, V domains shown)
VH: ELQLQESGPGLVKPSETLSLTCTVSGGSITASNYYWGWIRQPPGKGLEWIGSIDYTGSTYYEPSLKSRVTISVDTSKNQFSLKLSSVTAADTAVYYCATGNYYETYLGFDVWGQGTLVTVSS
VL: ESVLTQPPSVSGAPGQRVTISCTGSSSNIGAHYDVHWYQQLPGTAPKLLIYGNDNRPSGVPDRFSGSKSGTSASLAITGLQAEDEADYYCQSYDYSLSGYVFGGGTKLTVL
notes: as for B1
Consider B9, for which, in assay [2], the Kd is 0.82 nM, the koff is 0.000705 s⁻¹ and the on-rate constant (kon) was 856000 M⁻¹ s⁻¹.

B10: mAb6_2.10 Fab (Fab, V domains shown)
VH: ELQLQESGPGLVKPSETLSLTCTVSGGSITSSNYYWGWIRQPPGKGLEWIGSIDYTGSTYYQPSLKSRVTISVDTSKNQFSLKLSSVTAADTAVYYCARGNYYETYLGFDVWGQGTLVTVSS
VL: ESVLTQPPSVSGAPGQRVTISCTGSSSNIGAHYDVHWYQQLPGTAPKLLIYGNDNRPSGVPDRFSGSKSGTSASLAITGLQAEDEADYYCQSYDYSLSGYVFGGGTKLTVL
notes: as for B1
In assay [2], B10 showed a Kd of 2.47 nM, a koff of 0.00103 s⁻¹ and a kon of 415000 M⁻¹ s⁻¹.

B11: mAb6_2.7 Fab (Fab, V domains shown)
VH: ELQLQESGPGLVKPSETLSLTCTVSGGSITASNTYWGWIRQPPGKGLEWIGSIDYTGSTYYNPSLKSRVTISVDTSKNQFSLKLSSVTAADTAVYYCATGKYYETYLGFDVWGQGTLVTVSS
VL: ESVLTQPPSVSGAPGQRVTISCTGSSSNIGAHYDVHWYQQLPGTAPKLLIYGNDNRPSGVPDRFSGSKSGTSASLAITGLQAEDEADYYCQSYDYSLSGYVFGGGTKLTVL
notes: as for B1
Turning to B11, the “IC50 … by HaCat cells” value in assay [1] came to 0.2 nM. For the same molecule, in assay [2], the Kd came out at 0.61 nM, the koff is 0.00018 s⁻¹ and the kon is 297000 M⁻¹ s⁻¹.

For orientation: Kd means the free concentration of one partner at which half of the binding sites on the other are occupied at equilibrium, for simple one-to-one binding. Low values mean a tighter complex, high ones a looser complex. Usually koff stands for the first-order rate constant of dissociation. Read a low koff as slow dissociation. The kon is a measure of how fast the partners come together. The low end stands for slower complex formation, the high end for faster complex formation. In general, IC50 refers to the point on the concentration scale where inhibition reaches its midpoint. Low readings indicate inhibition by little substance, high ones a need for much substance.
